Data as given in paper doi:10.1101/2023.04.18.537051 (bioRxiv, 2023).

B3: RafH (ribosome associated factor under hypoxia), M. smegmatis MSMEG_3935 (natural protein)
chain: MDVDVSTDGELPGAAEYAREKIGRLSRRAHRPVLHARVRLTRHGDPAVERPVIAQANLDVNGRQVRAQVEGVNAREAVDRLEARLRSRLERIAEHWEARRGGVPAEAGREWRHESEPARRPGYFPRPPEERRIIRRKSFSMVPCTVDEAALEMEMLDYDFHLFTEKGTGFAAVLYKGGPTGYRLVLVIPVPADELSPFEKPITISTHPAPCLTQRDAVERLGLLGLPFLFYIDAAEGRASVIYRRYDGHYGLITPADG

Assays:
[1] = target: B3; assay: cryo-EM structure
[2] = target: T1, ribosomal protein bS1 of the M. smegmatis 70S ribosome (M. smegmatis (mc2155), UniProt A0QYY6 1-479); assay: cryo-EM structure
T1 sequence: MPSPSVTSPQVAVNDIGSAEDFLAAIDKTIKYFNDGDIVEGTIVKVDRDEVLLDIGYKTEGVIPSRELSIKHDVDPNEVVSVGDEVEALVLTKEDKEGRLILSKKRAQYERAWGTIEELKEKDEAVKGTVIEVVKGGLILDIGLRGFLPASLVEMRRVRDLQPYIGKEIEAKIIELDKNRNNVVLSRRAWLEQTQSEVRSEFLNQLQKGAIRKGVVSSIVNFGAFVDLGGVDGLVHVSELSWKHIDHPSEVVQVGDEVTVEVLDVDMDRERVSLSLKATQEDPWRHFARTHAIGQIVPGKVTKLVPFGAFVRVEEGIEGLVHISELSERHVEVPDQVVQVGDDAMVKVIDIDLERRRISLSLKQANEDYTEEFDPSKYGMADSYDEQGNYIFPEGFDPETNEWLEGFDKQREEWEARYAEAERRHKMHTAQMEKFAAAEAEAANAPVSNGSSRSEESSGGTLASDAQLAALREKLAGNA

B1: ribosomal protein uS11 of the M. smegmatis 70S ribosome (natural protein)
chain: not shown
[1]
  binding result: binds

B2: ribosomal protein uS2 of the M. smegmatis 70S ribosome (natural protein)
chain: MAVVTMKQLLDSGAHFGHQTRRWNPKMKRFIFTDRNGIYIIDLQQTLTYIDKAYEFVKETVAHGGTVLFVGTKKQAQESIAEEATRVGMPYVNQRWLGGMLTNFSTVHKRLQRLKELEAMEQTGGFEGRTKKEILMLTREKNKLERSLGGIRDMQKVPSAVWVVDTNKEHIAVGEARKLGIPVIAILDTNCDPDVVDYPIPGNDDAIRSAALLTKVIASAVAEGLQARAGQGSGEKPAEGAEPLAEWEQELLAGATAGAADASAEGAAAPESSTDAS
[2]
  binding result: binds

## B3
[2]
  binding result: binds

B4: ribosomal protein uS9 of the M. smegmatis 70S ribosome (natural protein)
chain: MTDVTETEVVTESAEPREPVIIDRPIQTVGRRKEAVVRVRLVPGTGQFNLDGRTLENYFPNKVHQQLIKAPLVTVDRVDQFDIYAHLDGGGPSGQAGALRLAIARALILVQPEDRPALKKAGFLTRDPRAIERKKYGLKKARKAPQYSKR
[1]
  binding result: binds
